The numbers were not newly measured in paper PMC7228754, which cites them from elsewhere.

This data set has as its target Rab1b (Homo sapiens) (UniProt Q9H0U4).

Sequence of Rab1b (Homo sapiens) (Q9H0U4 whole entry): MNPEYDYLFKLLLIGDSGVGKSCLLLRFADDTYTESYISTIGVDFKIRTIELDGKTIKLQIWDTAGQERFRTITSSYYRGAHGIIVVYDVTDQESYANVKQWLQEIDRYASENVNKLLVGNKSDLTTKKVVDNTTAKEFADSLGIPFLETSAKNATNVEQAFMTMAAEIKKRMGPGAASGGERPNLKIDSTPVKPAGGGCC
Sequence of AnkX (Q5ZXN6 whole entry): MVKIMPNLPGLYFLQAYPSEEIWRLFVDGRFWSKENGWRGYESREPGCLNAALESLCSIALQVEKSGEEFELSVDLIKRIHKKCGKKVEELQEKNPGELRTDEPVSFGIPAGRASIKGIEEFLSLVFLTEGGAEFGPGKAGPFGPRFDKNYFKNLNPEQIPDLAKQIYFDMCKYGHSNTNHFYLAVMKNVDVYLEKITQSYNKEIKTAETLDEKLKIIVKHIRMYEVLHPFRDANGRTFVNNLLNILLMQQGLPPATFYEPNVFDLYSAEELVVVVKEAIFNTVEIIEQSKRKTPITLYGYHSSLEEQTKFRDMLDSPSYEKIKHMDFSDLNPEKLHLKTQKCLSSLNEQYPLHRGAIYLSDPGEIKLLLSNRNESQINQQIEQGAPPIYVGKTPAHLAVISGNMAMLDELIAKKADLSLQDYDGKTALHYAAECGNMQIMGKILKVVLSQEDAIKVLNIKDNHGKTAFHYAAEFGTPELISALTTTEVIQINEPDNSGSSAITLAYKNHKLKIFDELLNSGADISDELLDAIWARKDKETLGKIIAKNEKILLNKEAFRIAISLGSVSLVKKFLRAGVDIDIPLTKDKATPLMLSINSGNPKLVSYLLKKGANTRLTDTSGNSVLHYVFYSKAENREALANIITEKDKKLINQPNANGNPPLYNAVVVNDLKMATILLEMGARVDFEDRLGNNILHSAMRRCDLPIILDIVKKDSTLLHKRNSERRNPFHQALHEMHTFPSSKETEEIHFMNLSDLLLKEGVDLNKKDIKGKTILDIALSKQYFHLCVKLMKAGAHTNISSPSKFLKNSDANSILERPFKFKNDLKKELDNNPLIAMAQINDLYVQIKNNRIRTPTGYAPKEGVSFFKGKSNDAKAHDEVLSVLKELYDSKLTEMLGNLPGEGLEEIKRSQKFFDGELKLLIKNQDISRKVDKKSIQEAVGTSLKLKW

With AnkX (from UniProt Q5ZXN6), the Kd is 122 µM.

One may read the Kd as the equilibrium constant for the complex coming apart.
